The text below walks through data of US20260125457A1 (Janssen / Centocor, published 2026).

Assay [1] concerns the target HIS-CALRdel52 (produced in E. coli). Nature of the assay: QC monoclonal phage ELISA, helper phage control. For orientation: An ELISA detects its analyte on a solid surface through an enzyme-linked reagent.
The target of assay [2] is T1, CD3 on primary human pan T cells (human, UniProt P07766 23-207).
T1 construct: whole, on cells; also called CD3e; CD3ε
Put plainly: flow cytometry on pan CD3 T cells, 1 h at 37 C, AF647 secondary antibody, Geometric Mean. As for the experimental part: FIG. 22 depicts binding of different CALRmutxCD3 bispecific antibodies to pan CD3 T cells. Flow cytometry was used to evaluate CALRmutxCD3 binding to pan CD3 T cells in vitro, by 1 hour 37° C. incubation, with subsequent incubation with secondary AF647-labeled antibody. Geometric mean fluorescence intensity of AF647 was measured to determine antibody binding.
Flow cytometry was used to evaluate the CD3 arm binding of CALRmutxCD3 antibodies listed in Table 21 to CD3+ pan T cells from healthy human donor. CALRmutxCD3 were tested after 1 hour 37° C. incubation with pan T cells.
For orientation: In flow cytometry, cells or beads pass a laser one at a time.

The target in assay [3] is T2, wild-type calreticulin (CALRwt) expressed with MPL in engineered cancer cells (UniProt P27797 18-417, limits assumed).
T2 construct: whole, on cells; also called OCI-M2 MPL CALRwt
T2 sequence (looked up): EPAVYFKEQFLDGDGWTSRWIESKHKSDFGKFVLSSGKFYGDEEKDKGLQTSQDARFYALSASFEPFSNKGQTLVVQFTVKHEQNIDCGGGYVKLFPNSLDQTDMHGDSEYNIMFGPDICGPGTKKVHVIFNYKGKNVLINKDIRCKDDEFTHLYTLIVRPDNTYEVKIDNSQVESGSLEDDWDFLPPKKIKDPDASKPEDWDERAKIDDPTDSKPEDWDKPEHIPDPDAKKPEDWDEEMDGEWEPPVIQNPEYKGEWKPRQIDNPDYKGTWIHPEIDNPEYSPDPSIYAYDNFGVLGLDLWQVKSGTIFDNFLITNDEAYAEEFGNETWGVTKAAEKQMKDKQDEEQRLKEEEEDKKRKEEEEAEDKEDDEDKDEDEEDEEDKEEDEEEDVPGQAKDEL
Nature of the assay: flow cytometry on ELF-153 MPL CALRwt cells, 1 h at 37 C, AF647 secondary antibody, Geometric Mean. The method, then:
(§1) FIGS. 21A-21F depict binding of different CALRmutxCD3 bispecific antibodies to CALRmut-negative or CALRmut-positive cells. Flow cytometry was used to evaluate CALRmutxCD3 binding to CALRmut-negative and CALRmut-positive cancer cells in vitro. CALRmutxCD3 antibodies were tested on a panel of cell lines, engineered to express MPL and CALRmut, after 1 hour 37° C. incubation, with subsequent incubation with secondary AF647-labeled antibody. Geometric mean fluorescence intensity of AF647 was measured to determine antibody binding.

In assay [4] the target is T3, CALRins5 (mutant calreticulin, 5 base pair insertion, Type 2) expressed with MPL on engineered cancer cells (UniProt P27797 18-417).
T3 construct: whole, on cells; On the cell surface in complex with MPL; also called OCI-M2 MPL CALRins5
T3 sequence (looked up): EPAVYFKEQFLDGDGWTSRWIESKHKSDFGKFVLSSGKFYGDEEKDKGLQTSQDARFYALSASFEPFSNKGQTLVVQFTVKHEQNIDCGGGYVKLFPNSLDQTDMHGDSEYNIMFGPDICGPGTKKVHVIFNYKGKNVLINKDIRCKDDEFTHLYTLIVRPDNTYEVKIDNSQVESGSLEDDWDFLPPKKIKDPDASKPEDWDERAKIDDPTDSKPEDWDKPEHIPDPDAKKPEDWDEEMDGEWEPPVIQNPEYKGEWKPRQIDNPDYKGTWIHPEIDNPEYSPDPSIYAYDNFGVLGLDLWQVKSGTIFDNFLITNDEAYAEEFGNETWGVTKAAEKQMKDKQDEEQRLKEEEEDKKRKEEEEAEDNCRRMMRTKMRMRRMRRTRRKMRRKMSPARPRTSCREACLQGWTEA
Nature of the assay: flow cytometry on ELF-153 MPL CALRins5 cells, 1 h at 37 C, AF647 secondary antibody, Geometric Mean. As for the experimental part:
as §1

Assay [5] concerns the target T4, CALRdel52 (mutant calreticulin, 52 base pair deletion, Type 1) expressed with MPL on engineered cancer cells (UniProt P27797 18-417).
T4 construct: whole, on cells; On the cell surface in complex with MPL; also called OCI-M2 MPL CALRdel52
T4 sequence (looked up): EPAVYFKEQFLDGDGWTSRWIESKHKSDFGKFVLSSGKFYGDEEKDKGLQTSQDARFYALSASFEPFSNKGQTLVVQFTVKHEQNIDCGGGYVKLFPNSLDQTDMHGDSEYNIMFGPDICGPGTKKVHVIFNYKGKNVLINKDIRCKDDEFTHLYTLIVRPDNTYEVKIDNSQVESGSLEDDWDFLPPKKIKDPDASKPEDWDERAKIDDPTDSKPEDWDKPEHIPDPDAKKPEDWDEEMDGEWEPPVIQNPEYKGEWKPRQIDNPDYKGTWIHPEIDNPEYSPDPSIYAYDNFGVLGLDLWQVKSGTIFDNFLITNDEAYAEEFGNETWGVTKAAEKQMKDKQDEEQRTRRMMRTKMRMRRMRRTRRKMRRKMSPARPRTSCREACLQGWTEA
Put plainly: flow cytometry on OCI-M2 MPL CALRdel52 cells, 1 h at 37 C, AF647 secondary antibody, Geometric Mean. The method, then: as §1

T1 sequence (P07766 23-207): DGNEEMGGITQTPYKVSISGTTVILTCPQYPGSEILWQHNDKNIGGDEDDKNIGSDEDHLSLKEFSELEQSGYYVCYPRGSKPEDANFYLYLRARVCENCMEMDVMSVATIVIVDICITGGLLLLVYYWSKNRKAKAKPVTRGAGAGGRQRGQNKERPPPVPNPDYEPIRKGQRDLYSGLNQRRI

In assay [1], M13KO7 came in with a phage ELISA signal (Coating: CALR) of 0.225.

B1: CALRB1508 CALRmut x CD3 bispecific antibody (bispecific antibody, human IgG1, kappa, L234A L235A)
scFv: DIQMTQSPSSLSASVGDRVTITCRARQSIGTAIHWYQQKPGCAPKLLIKYASESISGVPSRFSGSGSGTDFTLTISSLQPEDFATYYCQQSGSWPYTFGQGTKLEIKGGGSGGSGGCPPCGGSGGEVQLVESGGGLVKPGGSLRLSCAASGFTFSRYNMNWVRQAPGKGLEWVSSISTSSNYIYYADSVKGRFTFSRDNAKNSLDLQMSGLRAEDTAIYYCTRGWGPFDYWGCGTLVTVSSEPKSSDKTHTCPPCPAPEAAGGPSVFLFPPKPKDTLMISRTPEVTCVVVSVSHEDPEVKFNWYVDGVEVHNAKTKPREEQYNSTYRVVSVLTVLHQDWLNGKEYKCKVSNKALPAPIEKTISKAKGQPREPQVYTLPPSREEMTKNQVSLWCLVKGFYPSDIAVEWESNGQPENNYKTTPPVLDSDGSFFLYSKLTVDKSRWQQGNVFSCSVMHEALHNHYTQKSLSLSPGK
heavy: QVQLVQSGAEVKKPGASVKVSCKASGFSLSSYAMSWVRQAPGQGLEWMGVIDSGGTTYYAQKFQGRVTMTRDTSTSTVYMELSSLRSEDTAVYYCARESYAGYDYYGHPIPYGMEPWGQGTLVTVSSASTKGPSVFPLAPSSKSTSGGTAALGCLVKDYFPEPVTVSWNSGALTSGVHTFPAVLQSSGLYSLSSVVTVPSSSLGTQTYICNVNHKPSNTKVDKKVEPKSCDKTHTCPPCPAPEAAGGPSVFLFPPKPKDTLMISRTPEVTCVVVSVSHEDPEVKFNWYVDGVEVHNAKTKPREEQYNSTYRVVSVLTVLHQDWLNGKEYKCKVSNKALPAPIEKTISKAKGQPREPQVYTLPPSREEMTKNQVSLSCAVKGFYPSDIAVEWESNGQPENNYKTTPPVLDSDGSFFLVSKLTVDKSRWQQGNVFSCSVMHEALHNRFTQKSLSLSPGK
light: DIQMTQSPSTLSASVGDRVTITCQASQSLYNNKNLAWYQQKPGKAPKLLIYYASALASGVPSRFSGSGSGTEFTLTISSLQPDDFATYYCQGEFNCNSADCNSFGGGTKVEIKRTVAAPSVFIFPPSDEQLKSGTASVVCLLNNFYPREAKVQWKVDNALQSGNSQESVTEQDSKDSTYSLSSTLTLSKADYEKHKVYACEVTHQGLSSPVTKSFNRGEC
notes: Chain A: CD3 spFv-Fc; Chain B: CALRB1114 Fab arm
Turning to B1, the “EC50 (read off the curve)” value is approximately 3 nM in assay [2], approximately 3 nM in assay [4] and approximately 4 nM in assay [5]. Moreover, the binding result in assay [3] is recorded as “no binding (tested: 100 nM)”.

B2: C3CRB75 CALRmut x CD3 bispecific antibody (bispecific antibody, human IgG1, kappa, L234A L235A)
heavy 1: EVQLLESGGGLVQPGGSLRLSCAVSGIDLSNNAISWVRQAPGKGLEYVGVIGNTGDTYYADSAKGRFTISRDSSKTTLYLQMNSLRAEDTAVYFCVRGPPSYSSSVKNIWGQGTLVTVSSASTKGPSVFPLAPSSKSTSGGTAALGCLVKDYFPEPVTVSWNSGALTSGVHTFPAVLQSSGLYSLSSVVTVPSSSLGTQTYICNVNHKPSNTKVDKKVEPKSCDGGGGSGGGGSDIQMTQSPSSLSASVGDRVTITCRARQSIGTAIHWYQQKPGCAPKLLIKYASESISGVPSRFSGSGSGTDFTLTISSLQPEDFATYYCQQSGSWPYTFGQGTKLEIKGGGSGGSGGCPPCGGSGGEVQLVESGGGLVKPGGSLRLSCAASGFTFSRYNMNWVRQAPGKGLEWVSSISTSSNYIYYADSVKGRFTFSRDNAKNSLDLQMSGLRAEDTAIYYCTRGWGPFDYWGCGTLVTVSSEPKSSDKTHTCPPCPAPEAAGGPSVFLFPPKPKDTLMISRTPEVTCVVVSVSHEDPEVKFNWYVDGVEVHNAKTKPREEQYNSTYRVVSVLTVLHQDWLNGKEYKCKVSNKALPAPIEKTISKAKGQPREPQVYTLPPSREEMTKNQVSLWCLVKGFYPSDIAVEWESNGQPENNYKTTPPVLDSDGSFFLYSKLTVDKSRWQQGNVFSCSVMHEALHNHYTQKSLSLSPGK
heavy 2: EVQLLESGGGLVQPGGSLRLSCAVSGIDLSNNAISWVRQAPGKGLEYVGVIGNTGDTYYADSAKGRFTISRDSSKTTLYLQMNSLRAEDTAVYFCVRGPPSYSSSVKNIWGQGTLVTVSSASTKGPSVFPLAPSSKSTSGGTAALGCLVKDYFPEPVTVSWNSGALTSGVHTFPAVLQSSGLYSLSSVVTVPSSSLGTQTYICNVNHKPSNTKVDKKVEPKSCDKTHTCPPCPAPEAAGGPSVFLFPPKPKDTLMISRTPEVTCVVVSVSHEDPEVKFNWYVDGVEVHNAKTKPREEQYNSTYRVVSVLTVLHQDWLNGKEYKCKVSNKALPAPIEKTISKAKGQPREPQVYTLPPSREEMTKNQVSLSCAVKGFYPSDIAVEWESNGQPENNYKTTPPVLDSDGSFFLVSKLTVDKSRWQQGNVFSCSVMHEALHNRFTQKSLSLSPGK
light: DIQMTQSPSSVSASVGDRVTITCQSSQSVYNNNWLSWLQQKPGKAPKRLIYDASKLESGVPSRFSGSGSGTDFTLTISSVQPEDAATYYCAGGFTGNVYTFGGGTKVEIKRTVAAPSVFIFPPSDEQLKSGTASVVCLLNNFYPREAKVQWKVDNALQSGNSQESVTEQDSKDSTYSLSSTLTLSKADYEKHKVYACEVTHQGLSSPVTKSFNRGEC
notes: Chain A heavy: CALRB421 Fab heavy part, CD3 spFv, Fc; Chain B heavy: CALRB421; one light chain on each
B2: the binding result in assay [2] was “binds”; in assay [3], “no binding (tested: 100 nM)”. The half-maximal effective concentration (EC50 (read off the curve)) in assay [4] was approximately 0.5 nM; in assay [5], approximately 2 nM.

For orientation: EC50 (read off the curve) means the concentration that produces a half-maximal response. A higher EC50 (read off the curve) goes with a need for much substance.
